Measurements reported in PMC6281700, “Biochemical Characterization of Kluyveromyces lactis Adenine Deaminase and Guanine Deaminase and Their Potential Application in Lowering Purine Content in Beer” (Frontiers in Bioengineering and Biotechnology, 2018).

B1: KlacADA (Kluyveromyces lactis NRRL Y-1140) (protein)
chain: MAKFECTDEVTNFLTELPKCEHHLHLEGTLEPELLFQLVERNGVQLPGTFPKTVNELHVIYNNFADLQDFLNYYYIGCNVLLSEDDFFELAWSYFKRVSTQGLRHAEVFYDPQSHTSRGISLEVVTKGFERACAKAQEEFNISTKLIMCLLRHCPVEECMDTVKSAKSLIESGVIDGLGLDSSERPFPPELFVECYQLAKSYNKELQLTAHAGEEGDPSFVTNTLDLLETTRIDHGVRSIEDAELIKRLAAQKVMLTLCPLSNVKLQVVKDVSELPLQEFLDNDVPFSINSDDPAYFGGYILQNYLEVYSRFGWSKAVWAKIARQSIEGSWCDPKRKQELLSEVSEVVNKYVNLP
notes: full length, N-terminal 6xHis (pET28c NdeI/XhoI), E. coli BL21(DE3); 46 kDa monomer; gene at chromosome E 2,064,516-2,065,583, no introns (1068 bp, about 355 residues)
B2: KlacGDA (Kluyveromyces lactis NRRL Y-1140) (protein)
chain: MAPVTINMVKSEESFIDEPFHPEGVKIIVHYGNLIDTPELGQLRIRLKCAVGICSTSGVILFIEEGCDDPVIAALNYDRYLKDIDIHVIFNSVSDPAGKDSFYFPGFVDTHIHASQYPNCGIFGNSTLLDWLDTYTFPLESSLNDENIAALTYDAVISQTLKHGTTCASYFTTIDSNSSKIMADLCKSKGQRAFIGKVCMNQHSPSYYQETIEECKDASLDLIEYILKDLNSPLIKPIITPRFAITCSSALMDSLSEVAEEFDLPIQTHLNENDSEIAFVKELFKDCHSYTDVYHKHGLLNGKTVLAHCIHLEDSEIELLKKSSAGISHCPISNSSLTSGECRVKELLNYGLKVSLGSDVSGGFTVSILENARQALLVSRHRAMSVEDPERKEECKLSVAEVLYLATMGGAKVLNLSDKIGSFDVGKEFDAQLIDLSTKGSNVSIFPWQKVTNDKIQPNGKDRIKLENIVAKWLFNGDDRNVKSVWVRGKLCHQNL
notes: full length, N-terminal 6xHis (pET28c NdeI/XhoI), E. coli BL21(DE3); 106 kDa dimer; gene at chromosome D 1,643,703-1,645,193 (1491 bp, about 496 residues)

What was measured:
purified protein [1] = substrate: Nc1ncnc2nc[nH]c12; test: purified protein; format: biochemical, Kluyveromyces lactis; settings: 100 mM potassium phosphate, pH 6.0, 30°C
purified protein [2] = substrate: Nc1nc2nc[nH]c2c(=O)[nH]1; test: purified protein; format: biochemical, Kluyveromyces lactis; settings: 100 mM phosphate, pH 7.0, 25°C

Protein	Km (purified protein [1])	kcat (purified protein [1])	kcat/Km (purified protein [1])	Km (purified protein [2])	kcat (purified protein [2])	kcat/Km (purified protein [2])
B1	680 ± 4.6 µM	8.1 ± 1.3 s⁻¹	11000 M⁻¹ s⁻¹	–	–	–
B2	–	–	–	83 ± 2.7 µM	7.3 ± 1.2 s⁻¹	87000 M⁻¹ s⁻¹
